Measurements from PMC5119942 (The Journal of Cell Biology, 2016).

Legend:
His6-Trs31 (recombinant) = biological target: T1, His6-Trs31 (recombinant) (yeast, UniProt Q03337 1-283); test: co-purification of co-expressed subunits
T1 sequence (looked up): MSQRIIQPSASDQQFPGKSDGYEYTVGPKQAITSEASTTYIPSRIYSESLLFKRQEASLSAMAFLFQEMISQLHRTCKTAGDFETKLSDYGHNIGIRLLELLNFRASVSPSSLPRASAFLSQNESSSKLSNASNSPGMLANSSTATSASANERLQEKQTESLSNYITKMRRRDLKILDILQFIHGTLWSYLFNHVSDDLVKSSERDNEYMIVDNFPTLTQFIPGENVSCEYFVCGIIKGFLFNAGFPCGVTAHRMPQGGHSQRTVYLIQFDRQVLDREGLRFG

Trs130-TAP (recombinant) = biological target: T2, Trs130-TAP (recombinant) (yeast, UniProt Q03660 1-1102); test: co-purification of co-expressed subunits
T2 sequence (looked up): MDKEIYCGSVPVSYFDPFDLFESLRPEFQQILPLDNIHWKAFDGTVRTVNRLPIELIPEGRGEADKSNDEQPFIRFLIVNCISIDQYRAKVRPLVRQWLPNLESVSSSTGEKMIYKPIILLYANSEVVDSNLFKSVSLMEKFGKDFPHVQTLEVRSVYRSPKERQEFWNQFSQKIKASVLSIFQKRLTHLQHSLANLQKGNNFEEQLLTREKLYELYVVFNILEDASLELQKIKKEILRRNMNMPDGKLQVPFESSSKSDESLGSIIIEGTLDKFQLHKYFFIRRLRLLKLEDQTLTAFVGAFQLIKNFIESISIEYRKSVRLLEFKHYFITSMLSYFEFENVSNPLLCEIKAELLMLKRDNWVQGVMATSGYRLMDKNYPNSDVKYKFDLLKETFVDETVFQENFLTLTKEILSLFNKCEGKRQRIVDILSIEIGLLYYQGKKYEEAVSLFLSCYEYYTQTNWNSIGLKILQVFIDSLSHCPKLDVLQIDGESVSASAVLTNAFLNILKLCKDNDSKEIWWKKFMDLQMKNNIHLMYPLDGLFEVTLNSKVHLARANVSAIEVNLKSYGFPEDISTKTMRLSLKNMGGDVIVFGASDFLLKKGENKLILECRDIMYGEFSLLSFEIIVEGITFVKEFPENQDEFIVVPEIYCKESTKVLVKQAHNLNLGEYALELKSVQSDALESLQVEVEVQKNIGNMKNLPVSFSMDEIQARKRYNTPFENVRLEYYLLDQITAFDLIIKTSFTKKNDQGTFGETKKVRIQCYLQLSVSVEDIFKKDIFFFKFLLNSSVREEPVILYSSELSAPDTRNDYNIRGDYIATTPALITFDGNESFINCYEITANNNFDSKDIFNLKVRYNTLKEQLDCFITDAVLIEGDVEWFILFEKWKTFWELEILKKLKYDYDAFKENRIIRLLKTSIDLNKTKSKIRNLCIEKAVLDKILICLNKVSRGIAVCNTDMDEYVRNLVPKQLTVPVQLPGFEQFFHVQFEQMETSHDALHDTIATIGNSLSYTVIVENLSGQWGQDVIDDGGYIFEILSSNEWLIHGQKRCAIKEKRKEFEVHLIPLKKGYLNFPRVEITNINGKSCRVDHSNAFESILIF

B1: Bet3 (recombinant) (natural protein, yeast, UniProt P36149 1-193, looked up)
chain: MVSTTQSRSLKAMGEEIWKNKTEKINTELFTLTYGSIVAQLCQDYERDFNKVNDHLYSMGYNIGCRLIEDFLARTALPRCENLVKTSEVLSKCAFKIFLNITPNITNWSHNKDTFSLILDENPLADFVELPMDAMKSLWYSNILCGVLKGSLEMVQLDCDVWFVSDILRGDSQTEIKVKLNRILKDEIPIGED
In the case of B1, the “stoichiometry N” value (His6-Trs31 (recombinant)) is reported as 2 and the “stoichiometry N” value (Trs130-TAP (recombinant)) is reported as 2.
